In patent US20210355235A1, “Compositions and Methods For Treating Cancer with Anti-Renalase antibodies and Anti-PD1 antibodies” (YALE UNIVERSITY, priority 2017, published 2021):
Entries after “also recorded” stand apart in the source; their conditions may differ.

Experiments:
[1] = test system: renalase-1 and renalase-2; assay: renalase isoform specificity of the antibodies (ELISA / hybridoma screening); type: binding, human; conditions: renalase-1 vs renalase-2
Method: Peptides were used as immunogens. The peptides generated ranged from 9 to 21 amino acids and corresponded to regions of the renalase-1 and renalase-2 proteins. […] Each peptide was conjugated to the adjuvant KLH via the cysteine and used to immunize 6 rabbits. Antiserum collected from each animal was screened for anti-renalase antibody titer by ELISA assay using both the relevant peptide (BSA-conjugate) or full length renalase-1 or 2. The antisera were also tested for their ability to detect endogenous renalase in tissue lysates by western blot. Using these screening criteria the animals producing antibodies with the preferred characteristics were selected. In some examples and for some peptides, several animals produced antibodies with the required specificity. […] Polyclonal antibodies raised against all of the peptides were generated by purification of total IgG from terminal bleeds by protein G chromatography followed by further purification on peptide affinity chromatography. Further and using standard procedures, lymphocytes from the spleens of selected animals were fused to myeloma cells for hybridoma generation. The hybridoma supernatants were screened for binding to both the peptides against which they were raised and secondarily screened against whole renalase protein. Selected hybridomas were sub-cloned and expanded for antibody purification. The monoclonal antibodies were purified from conditioned hybridoma culture supernatant by protein A affinity chromatography.

Panc1 cells = assay: western blot of p38 and STAT3 phosphorylation; type: cell-based, human
From the text: FIG. 27, comprising FIGS. 27A through 27E, is a series of images and charts showing the interaction between RNLS and STAT3, and the mechanistic model of inhibition by m28-RNLS. FIG. 27A is an image showing activation of STAT3 by RNLS in Panc1 cells; Panc1 cells in culture treated with either BSA or RNLS, and STAT3 phosphorylation assessed by western blot; p-Ser^727-STAT3: phosphorylation at serine 727, p-Y^705-STAT3: phosphorylation at tyrosine 705; representative study. FIG. 27B is a chart depicting the quantification of STAT3 phosphorylation with RNLS; signals normalized to total STAT3; n=3, *=P<0.05. […] FIG. 27D is a chart showing the quantification of STAT3 phosphorylation with m28-RNLS; signals normalized to GAPDH loading control; n=3, *=P<0.05. FIG. 27E depicts the proposed mechanistic model for antitumor activity of m28-RNLS.

B1: m28-RNLS: rabbit anti-renalase monoclonal raised against RNLS peptide RP-220; heavy chain SEQ ID NO:9, light chain SEQ ID NO:10 (antibody)
heavy: METGLRWLLLVAVLKGVQCQSVEESGGRLVTPGTPLTLTCTVSGFSLSSFAVGWVRQAPGKGLEYIGIISSVGITRYASWAAGRFTISKTSTTVDLKITSPTTEDTATYFCARYGYSGDVNRLDLWGQGTLVTVSSGQPKAPSVFPLAPCCGDTPSSTVTLGCLVKGYLPEPVTVTWNSGTLTNGVRTFPSVRQSSGLYSLSSVVSVTSSSQPVTCNVAHPATNTKVDKTVAPSTCSKPTCPPPELLGGPSVFIFPPKPKDTLMISRTPEVTCVVVDVSQDDPEVQFTWYINNEQVRTARPPLREQQFNSTIRVVSTLPIAHQDWLRGKEFKCKVHNKALPAPIEKTISKARGQPLEPKVYTMGPPREELSSRSVSLTCMINGFYPSDISVEWEKNGKAEDNYKTTPAVLDSDGSYFLYSKLSVPTSEWQRGDVFTCSVMHEALHNHYTQKSISRSPGK
light: MDTRAPTQLLGLLLLWLPGATFAQVLTQTASPVSAAVGGTVTINCQASQSVYDNNNLAWYQQKPGQPPKQLIYGASTLASGVSSRFKGSGSGTQFTLTISGVQCDDAATYYCLGEFSCSSADCFAFGGGTEVVVKGDPVAPTVLIFPPSADLVATGTVTIVCVANKYFPDVTVTWEVDGTTQTTGIENSKTPQNSADCTYNLSSTLTLTSTQYNSHKEYTCKVTQGTTSVVQSFNRGDC
modifications: 1D-28-4 full length heavy chain amino acid; 1D-28-4 full length light chain amino acid
renalase-type specificity [1]: recognize renalase-1 and renalase-2 | p38 MAPK phosphorylation (Panc1 cells; beginning at day 1 post treatment): sustained phosphorylation | STAT3 phosphorylation (p-Y705-STAT3) after antibody (Panc1 cells; up to 4 days): long-lasting and sustained decrease; also recorded: inhibits STAT3 phosphorylation
